The values below come from FireProtDB (doi:10.1093/protein/12.8.663).

Where “and” joins values, the source holds several entries; their conditions need not be identical. Equal entries are not always repeated.

The labels stand for the following.
B1: Lysozyme C, P61626 (parent)
chain: MKALIVLGLVLLSVTVQGKVFERCELARTLKRLGMDGYRGISLANWMCLAKWESGYNTRATNYNAGDRSTDYGIFQINSRYWCNDGKTPGAVNACHLSCSALLQDNIADAVACAKRVVRDPQGIRAWVAWRNRCQNRDVRQYVQGCGV

One series covers variants of B1. As to conditions: Homo sapiens; pH 2.56; Thermal; DSC; glycine 0.05 M; reversible: yes; structure 1LZ1; whole UniProt chain shown.
Consider E53L, for which the Tm (as a rule, the temperature at the midpoint of the melting transition) worked out at 61.2 °C; the “unfolding enthalpy (calorimetric)” value turned out to be 94.9 kcal/mol; the “unfolding enthalpy (van 't Hoff)” value amounted to 105 kcal/mol.
As for A114M, the Tm was 62.5 °C, the “unfolding enthalpy (calorimetric)” value was determined as 95.1 kcal/mol and the “unfolding enthalpy (van 't Hoff)” value turned out to be 98 kcal/mol.

Still in this series, the particulars now being: Homo sapiens; pH 2.7; 64.9 °C; Thermal; DSC; glycine 0.05 M; reversible: yes; structure 1LZ1; whole UniProt chain shown.
For the variant E53L, the “ddG of mutation (higher = less stable)” value was determined as 0.53 kcal/mol.
The same measure, in the same setting: the same measure for G55Q: 0.26 kcal/mol; for V92S: 0.38 kcal/mol; for V118F: 1.65 kcal/mol.
As to H96G, the “ddG of mutation (higher = less stable)” value worked out at 0.12 kcal/mol.
Turning to A50L, the “ddG of mutation (higher = less stable)” value amounted to 0.1 kcal/mol.
Still for that read-out and setting: the same measure for A114M: -0.02 kcal/mol; for Q76G: -1.86 kcal/mol.
Same read-out and setting: next, R68G: -0.26 kcal/mol.

Staying with this series, now noted: Homo sapiens; pH 2.7; Thermal; DSC; glycine 0.05 M; reversible: yes; structure 1LZ1; whole UniProt chain shown.
For the variant E53L, the melting temperature (Tm) was 63.1 °C and 64.9 °C; the “change of melting temperature, mutant - wild type (higher = more stable)” value (shortened to “change of melting temperature, mutant”) was -1.8 °C; the “heat capacity change of unfolding” value was determined as 1.05 kcal/mol/K; the “unfolding enthalpy (calorimetric)” value was 99 kcal/mol.
Consider G55Q, for which the Tm was 64.1 °C and 64.9 °C; the “change of melting temperature, mutant” value was -0.8 °C; the “heat capacity change of unfolding” value came to 1.15 kcal/mol/K; the “unfolding enthalpy (calorimetric)” value turned out to be 108 kcal/mol.
In the case of V92S, the Tm was 63.7 °C and 64.9 °C; the “change of melting temperature, mutant” value was -1.2 °C; the “heat capacity change of unfolding” value turned out to be 1.22 kcal/mol/K; the “unfolding enthalpy (calorimetric)” value came to 108 kcal/mol.
Consider V118F, for which the “change of melting temperature, mutant” value was -6.5 °C; the “heat capacity change of unfolding” value was 0.93 kcal/mol/K; the “unfolding enthalpy (calorimetric)” value stood at 87.2 kcal/mol.
For H96G, the Tm is 64.4 °C and 64.9 °C; the “change of melting temperature, mutant” value was -0.5 °C; the “heat capacity change of unfolding” value worked out at 1.58 kcal/mol/K; the “unfolding enthalpy (calorimetric)” value is 109 kcal/mol.
Turning to N45L, the Tm came out at 65.3 °C and the “change of melting temperature, mutant” value is 0.4 °C.
A50L: the melting temperature (Tm) is 64.6 °C and 64.9 °C; the “change of melting temperature, mutant” value is -0.3 °C; the “heat capacity change of unfolding” value was 1.27 kcal/mol/K; the “unfolding enthalpy (calorimetric)” value is 98.2 kcal/mol.
In the case of A114M, the Tm was 65 °C and 64.9 °C; the “change of melting temperature, mutant” value came out at 0.1 °C; the “heat capacity change of unfolding” value came to 1.31 kcal/mol/K; the “unfolding enthalpy (calorimetric)” value is 98.7 kcal/mol.
With Q76G, the “change of melting temperature, mutant” value is 5.7 °C; the “heat capacity change of unfolding” value is 1.34 kcal/mol/K; the “unfolding enthalpy (calorimetric)” value is 109 kcal/mol.
Take R68G: the melting temperature (Tm) is 65.8 °C and 64.9 °C; the “change of melting temperature, mutant” value came to 0.9 °C; the “heat capacity change of unfolding” value was determined as 1.46 kcal/mol/K; the “unfolding enthalpy (calorimetric)” value amounted to 100 kcal/mol.

The same series, now with this note: Homo sapiens; pH 3.25; Thermal; DSC; glycine 0.05 M; reversible: yes; structure 1LZ1; whole UniProt chain shown.
Regarding E53L, the Tm came out at 70.8 °C, the “unfolding enthalpy (calorimetric)” value is 105 kcal/mol and the “unfolding enthalpy (van 't Hoff)” value worked out at 110 kcal/mol.

Staying with this series, now noted: Homo sapiens; pH 2.48; Thermal; DSC; glycine 0.05 M; reversible: yes; structure 1LZ1; whole UniProt chain shown.
Regarding G55Q, the Tm is 60.7 °C, the “unfolding enthalpy (calorimetric)” value worked out at 102 kcal/mol and the “unfolding enthalpy (van 't Hoff)” value was determined as 108 kcal/mol.

The same series, now with this note: Homo sapiens; pH 2.73; Thermal; DSC; glycine 0.05 M; reversible: yes; structure 1LZ1; whole UniProt chain shown.
In the case of G55Q, the Tm is 64.5 °C, the “unfolding enthalpy (calorimetric)” value was 108 kcal/mol and the “unfolding enthalpy (van 't Hoff)” value came to 111 kcal/mol.

Staying with this series, now noted: Homo sapiens; pH 3.09; Thermal; DSC; glycine 0.05 M; reversible: yes; structure 1LZ1; whole UniProt chain shown.
Consider G55Q, for which the melting temperature (Tm) is 70.1 °C, the “unfolding enthalpy (calorimetric)” value came to 113 kcal/mol and the “unfolding enthalpy (van 't Hoff)” value was determined as 118 kcal/mol.

The series is the same for the next values; noted with them: Homo sapiens; pH 2.61; Thermal; DSC; glycine 0.05 M; reversible: yes; structure 1LZ1; whole UniProt chain shown.
In the case of V92S, the midpoint of thermal melting (Tm) was determined as 62.1 °C, the “unfolding enthalpy (calorimetric)” value was 105 kcal/mol and the “unfolding enthalpy (van 't Hoff)” value worked out at 110 kcal/mol.
The matching figures for A50L: 63.1 °C, 94.9 kcal/mol and 97.8 kcal/mol.

The same series, now with this note: Homo sapiens; pH 2.83; Thermal; DSC; glycine 0.05 M; reversible: yes; structure 1LZ1; whole UniProt chain shown.
Turning to V92S, the Tm was determined as 66 °C, the “unfolding enthalpy (calorimetric)” value is 109 kcal/mol and the “unfolding enthalpy (van 't Hoff)” value was found to be 115 kcal/mol.
The like results for V118F were, in that order, 61 °C, 84.6 kcal/mol and 92 kcal/mol.
The like results for A50L were, in that order, 66.9 °C, 102 kcal/mol and 104 kcal/mol.

Staying with this series, now noted: Homo sapiens; pH 3.28; Thermal; DSC; glycine 0.05 M; reversible: yes; structure 1LZ1; whole UniProt chain shown.
V92S: the midpoint of thermal melting (Tm) worked out at 72.2 °C, the “unfolding enthalpy (calorimetric)” value worked out at 117 kcal/mol and the “unfolding enthalpy (van 't Hoff)” value came to 122 kcal/mol.

The series is the same for the next values; noted with them: Homo sapiens; pH 2.62; Thermal; DSC; glycine 0.05 M; reversible: yes; structure 1LZ1; whole UniProt chain shown.
Consider V118F, for which the Tm came to 56.8 °C, the “unfolding enthalpy (calorimetric)” value is 79.1 kcal/mol and the “unfolding enthalpy (van 't Hoff)” value was determined as 85.1 kcal/mol.

Still in this series, the particulars now being: Homo sapiens; pH 3.26; Thermal; DSC; glycine 0.05 M; reversible: yes; structure 1LZ1; whole UniProt chain shown.
As for V118F, the Tm was 67.6 °C, the “unfolding enthalpy (calorimetric)” value was found to be 89.4 kcal/mol and the “unfolding enthalpy (van 't Hoff)” value came to 95.4 kcal/mol.

The same series, now with this note: Homo sapiens; pH 2.53; Thermal; DSC; glycine 0.05 M; reversible: yes; structure 1LZ1; whole UniProt chain shown.
As to H96G, the midpoint of thermal melting (Tm) stood at 61.5 °C, the “unfolding enthalpy (calorimetric)” value was determined as 103 kcal/mol and the “unfolding enthalpy (van 't Hoff)” value came to 108 kcal/mol.

The same series, now with this note: Homo sapiens; pH 2.75; Thermal; DSC; glycine 0.05 M; reversible: yes; structure 1LZ1; whole UniProt chain shown.
For H96G, the Tm was 65.2 °C, the “unfolding enthalpy (calorimetric)” value stood at 110 kcal/mol and the “unfolding enthalpy (van 't Hoff)” value came out at 112 kcal/mol.

The series is the same for the next values; noted with them: Homo sapiens; pH 3.1; Thermal; DSC; glycine 0.05 M; reversible: yes; structure 1LZ1; whole UniProt chain shown.
Take H96G: the Tm was determined as 71 °C, the “unfolding enthalpy (calorimetric)” value was 118 kcal/mol and the “unfolding enthalpy (van 't Hoff)” value was 120 kcal/mol.

The same series, now with this note: Homo sapiens; pH 3.23; Thermal; DSC; glycine 0.05 M; reversible: yes; structure 1LZ1; whole UniProt chain shown.
Consider A50L, for which the Tm turned out to be 73.2 °C, the “unfolding enthalpy (calorimetric)” value was found to be 108 kcal/mol and the “unfolding enthalpy (van 't Hoff)” value amounted to 111 kcal/mol.

The same series, now with this note: Homo sapiens; pH 3.19; Thermal; DSC; glycine 0.05 M; reversible: yes; structure 1LZ1; whole UniProt chain shown.
As for A114M, the Tm worked out at 72.9 °C, the “unfolding enthalpy (calorimetric)” value was 109 kcal/mol and the “unfolding enthalpy (van 't Hoff)” value was 112 kcal/mol.

The series is the same for the next values; noted with them: Homo sapiens; pH 2.59; Thermal; DSC; glycine 0.05 M; reversible: yes; structure 1LZ1; whole UniProt chain shown.
Consider Q76G, for which the melting temperature (Tm) was determined as 68.3 °C, the “unfolding enthalpy (calorimetric)” value worked out at 113 kcal/mol and the “unfolding enthalpy (van 't Hoff)” value is 121 kcal/mol.

The series is the same for the next values; noted with them: Homo sapiens; pH 2.78; Thermal; DSC; glycine 0.05 M; reversible: yes; structure 1LZ1; whole UniProt chain shown.
In the case of Q76G, the Tm worked out at 72.5 °C, the “unfolding enthalpy (calorimetric)” value amounted to 119 kcal/mol and the “unfolding enthalpy (van 't Hoff)” value worked out at 127 kcal/mol.
The matching figures for R68G: 67.3 °C, 102 kcal/mol and 114 kcal/mol.

The series is the same for the next values; noted with them: Homo sapiens; pH 3.15; Thermal; DSC; glycine 0.05 M; reversible: yes; structure 1LZ1; whole UniProt chain shown.
On to Q76G, for which the midpoint of thermal melting (Tm) came out at 78.7 °C, the “unfolding enthalpy (calorimetric)” value came out at 127 kcal/mol and the “unfolding enthalpy (van 't Hoff)” value was determined as 135 kcal/mol.

The series is the same for the next values; noted with them: Homo sapiens; pH 2.58; Thermal; DSC; glycine 0.05 M; reversible: yes; structure 1LZ1; whole UniProt chain shown.
Regarding R68G, the melting temperature (Tm) is 63.7 °C, the “unfolding enthalpy (calorimetric)” value stood at 99.9 kcal/mol and the “unfolding enthalpy (van 't Hoff)” value came out at 111 kcal/mol.

Still in this series, the particulars now being: Homo sapiens; pH 3.11; Thermal; DSC; glycine 0.05 M; reversible: yes; structure 1LZ1; whole UniProt chain shown.
Consider R68G, for which the melting temperature (Tm) is 73 °C, the “unfolding enthalpy (calorimetric)” value turned out to be 113 kcal/mol and the “unfolding enthalpy (van 't Hoff)” value turned out to be 123 kcal/mol.
